Source: patent US20160264649A1

Experiments:
Experiment in all cases: cell-based or functional assay
[1] = biological target: HIV-1 Env of pseudovirus isolate MGRM-G-019 (subtype G) (HIV-1)
[2] = biological target: HIV-1 Env of pseudovirus isolate MGRM-G-017 (subtype G) (HIV-1)
[3] = biological target: HIV-1 Env of isolate MGRM-F1-017 (subtype F) (HIV-1)
[4] = biological target: HIV-1 Env of isolate MGRM-D-002 (subtype D) (HIV-1)
[5] = biological target: HIV-1 Env of isolate MGRM-F1-013 (subtype F) (HIV-1)
[6] = biological target: HIV-1 Env of isolate MGRM-D-024 (subtype D) (HIV-1)
[7] = biological target: HIV-1 Env of isolate 92UG046 (subtype D) (HIV-1)
[8] = biological target: HIV-1 Env of pseudovirus isolate MGRM-G-011 (subtype G) (HIV-1)
[9] = biological target: HIV-1 Env of isolate MGRM-D-028 (subtype D) (HIV-1)
[10] = biological target: HIV-1 Env of isolate MGRM-D-008 (subtype D) (HIV-1)
[11] = biological target: HIV-1 Env of isolate MGRM-F1-022 (subtype F) (HIV-1)
[12] = biological target: HIV-1 Env of isolate MGRM-D-026 (subtype D) (HIV-1)
[13] = biological target: HIV-1 Env of isolate MGRM-D-020 (subtype D) (HIV-1)
[14] = biological target: HIV-1 Env of isolate 92UG114 (subtype D) (HIV-1)
[15] = biological target: HIV-1 Env of isolate MGRM-F1-020 (subtype F) (HIV-1)
[16] = biological target: HIV-1 Env of isolate 92UG024 (subtype D) (HIV-1)
[17] = biological target: HIV-1 Env of pseudovirus isolate MGRM-G-016 (subtype G) (HIV-1)
[18] = biological target: HIV-1 Env of isolate MGRM-F1-016 (subtype F) (HIV-1)
[19] = biological target: HIV-1 Env of isolate MGRM-F1-006 (subtype F) (HIV-1)
[20] = biological target: HIV-1 Env of isolate MGRM-D-021 (subtype D) (HIV-1)
[21] = biological target: HIV-1 Env of isolate MGRM-D-016 (subtype D) (HIV-1)
[22] = biological target: HIV-1 Env of pseudovirus isolate MGRM-G-013 (subtype G) (HIV-1)
[23] = biological target: HIV-1 Env of pseudovirus isolate MGRM-G-024 (subtype G) (HIV-1)
[24] = biological target: HIV-1 Env of isolate 98CN009 (subtype CRF07_BC) (HIV-1)
[25] = biological target: HIV-1 Env of isolate MGRM-F1-023 (subtype F) (HIV-1)
[26] = biological target: HIV-1 Env of isolate 98CN006 (subtype CRF08_BC) (HIV-1)
[27] = biological target: envelope of aMLV pseudovirus (negative control)
[28] = biological target: HIV-1 Env of isolate 92UG005 (subtype D) (HIV-1)
[29] = biological target: HIV-1 Env of isolate MGRM-D-012 (subtype D) (HIV-1)
[30] = biological target: HIV-1 Env of pseudovirus isolate MGRM-G-015 (subtype G) (HIV-1)
[31] = biological target: HIV-1 Env of pseudovirus isolate MGRM-G-006 (subtype G) (HIV-1)
[32] = biological target: HIV-1 Env of isolate MGRM-F1-010 (subtype F) (HIV-1)
[33] = biological target: HIV-1 Env of isolate MGRM-F1-008 (subtype F) (HIV-1)
[34] = biological target: HIV-1 Env of pseudovirus isolate MGRM-G-028 (subtype G) (HIV-1)
[35] = biological target: HIV-1 Env of isolate MGRM-D-022 (subtype D) (HIV-1)
[36] = biological target: HIV-1 Env of isolate MGRM-F1-012 (subtype F) (HIV-1)
[37] = biological target: HIV-1 Env of isolate MGRM-D-001 (subtype D) (HIV-1)
[38] = biological target: HIV-1 Env of pseudovirus isolate MGRM-G-001 (subtype G) (HIV-1)
[39] = biological target: HIV-1 Env of isolate MGRM-D-005 (subtype D) (HIV-1)
[40] = biological target: HIV-1 Env of isolate MGRM-D-011 (subtype D) (HIV-1)
[41] = biological target: HIV-1 Env of pseudovirus isolate MGRM-G-014 (subtype G) (HIV-1)
[42] = biological target: HIV-1 Env of isolate MGRM-D-003 (subtype D) (HIV-1)
[43] = biological target: HIV-1 Env of pseudovirus isolate MGRM-G-027 (subtype G) (HIV-1)
[44] = biological target: HIV-1 Env of isolate MGRM-D-004 (subtype D) (HIV-1)
[45] = biological target: HIV-1 Env of isolate MGRM-D-014 (subtype D) (HIV-1)
[46] = biological target: HIV-1 Env of pseudovirus isolate MGRM-G-009 (subtype G) (HIV-1)
[47] = biological target: HIV-1 Env of pseudovirus isolate MGRM-G-004 (subtype G) (HIV-1)
[48] = biological target: HIV-1 Env of isolate MGRM-D-018 (subtype D) (HIV-1)
[49] = biological target: HIV-1 Env of isolate MGRM-F1-004 (subtype F) (HIV-1)
[50] = biological target: HIV-1 Env of isolate MGRM-F1-018 (subtype F) (HIV-1)
[51] = biological target: HIV-1 Env of isolate MGRM-F1-015 (subtype F) (HIV-1)
[52] = biological target: HIV-1 Env of isolate MGRM-D-019 (subtype D) (HIV-1)
[53] = biological target: HIV-1 Env of isolate 92UG001 (subtype D) (HIV-1)
[54] = biological target: HIV-1 Env of isolate MGRM-D-013 (subtype D) (HIV-1)
[55] = biological target: HIV-1 Env of isolate MGRM-D-029 (subtype D) (HIV-1)
[56] = biological target: HIV-1 Env of isolate MGRM-F1-014 (subtype F) (HIV-1)
[57] = biological target: HIV-1 Env of pseudovirus isolate MGRM-G-025 (subtype G) (HIV-1)
[58] = biological target: HIV-1 Env of isolate MGRM-F1-021 (subtype F) (HIV-1)

B1: PGT-135 (antibody, V domains shown)
VH: QLQMQESGPGLVKPSETLSLSCTVSGDSIRGGEWGDKDYHWGWVRHSAGKGLEWIGSIHWRGTTHYKESLRRRVSMSIDTSRNWFSLRLASVTAADTAVYFCARHRHHDVFMLVPIAGWFDVWGPGVQVTVSS
VL: EIVMTQSPDTLSVSPGETVTLSCRASQNINKNLAWYQYKPGQSPRLVIFETYSKIAAFPARFVASGSGTEFTLTINNMQSEDVAVYYCQQYEEWPRTFGQGTKVDIK
- IC50 [1]: 0.145 µg/mL
- IC50 [2]: 0.137 µg/mL
- IC50 (neutralization) [3]: 7.79 µg/mL
- IC50 (neutralization) [4]: > 50 µg/mL
- IC50 (neutralization) [5]: 21.1 µg/mL
- IC50 (neutralization) [6]: > 50 µg/mL
- IC50 (neutralization) [7]: > 50 µg/mL
- IC50 [8]: > 50 µg/mL
- IC50 (neutralization) [9]: > 50 µg/mL
- IC50 (neutralization) [10]: > 50 µg/mL
- IC50 (neutralization) [11]: 0.964 µg/mL
- IC50 (neutralization) [12]: > 50 µg/mL
- IC50 (neutralization) [13]: > 50 µg/mL
- IC50 (neutralization) [14]: 1.29 µg/mL
- IC50 (neutralization) [15]: 0.168 µg/mL
- IC50 (neutralization) [16]: 0.01 µg/mL
- IC50 [17]: > 50 µg/mL
- IC50 (neutralization) [18]: > 50 µg/mL
- IC50 (neutralization) [19]: > 50 µg/mL
- IC50 (neutralization) [20]: > 50 µg/mL
- IC50 (neutralization) [21]: > 50 µg/mL
- IC50 [22]: > 50 µg/mL
- IC50 [23]: 0.062 µg/mL
- IC50 (neutralization) [24]: 0.071 µg/mL
- IC50 (neutralization) [25]: 0.088 µg/mL
- IC50 (neutralization) [26]: 0.429 µg/mL
- IC50 [27]: > 50 µg/mL
- IC50 (neutralization) [28]: > 50 µg/mL
- IC50 (neutralization) [29]: > 50 µg/mL
- IC50 [30]: > 50 µg/mL
- IC50 [31]: > 50 µg/mL
- IC50 (neutralization) [32]: > 50 µg/mL
- IC50 (neutralization) [33]: > 50 µg/mL
- IC50 [34]: > 50 µg/mL
- IC50 (neutralization) [35]: > 50 µg/mL
- IC50 (neutralization) [36]: 0.01 µg/mL
- IC50 (neutralization) [37]: > 50 µg/mL
- IC50 [38]: 0.393 µg/mL
- IC50 (neutralization) [39]: > 50 µg/mL
- IC50 (neutralization) [40]: 23.5 µg/mL
- IC50 [41]: > 50 µg/mL
- IC50 (neutralization) [42]: > 50 µg/mL
- IC50 [43]: 0.062 µg/mL
- IC50 (neutralization) [44]: > 50 µg/mL
- IC50 (neutralization) [45]: 2.21 µg/mL
- IC50 [46]: > 50 µg/mL
- IC50 [47]: > 50 µg/mL
- IC50 (neutralization) [48]: 0.039 µg/mL
- IC50 (neutralization) [49]: 0.211 µg/mL
- IC50 (neutralization) [50]: > 50 µg/mL
- IC50 (neutralization) [51]: 1.11 µg/mL
- IC50 (neutralization) [52]: > 50 µg/mL
- IC50 (neutralization) [53]: > 50 µg/mL
- IC50 (neutralization) [54]: > 50 µg/mL
- IC50 (neutralization) [55]: 30.8 µg/mL
- IC50 (neutralization) [56]: > 50 µg/mL
- IC50 [57]: 0.592 µg/mL
- IC50 (neutralization) [58]: 0.065 µg/mL

B2: PGT-131 (antibody, V domains shown)
VH: QVQLQESGPGLVKPSETLSLTCTVSGDSINTGHHYWGWVRQVPGKGPEWIAHIHYNTAVLHNPALKSRVTISIFTLKNLITLSLSNVTAADTAVYFCVRSGGDILYYIEWQKPHWFYPWGPGILVTVSS
VL: QSALTQPPSASGSLGQSLTISCSGTGSDIGSWNFVSWYQQFPGRAPNLIIFEVNRRRSGVPDRFSGSKSGNTASLTVSGLRSEDEAEYFCSSLSGRWDIVFGGGTKVTVL
- IC50 [1]: > 50 µg/mL
- IC50 [2]: > 50 µg/mL
- IC50 (neutralization) [3]: > 50 µg/mL
- IC50 (neutralization) [4]: 11.2 µg/mL
- IC50 (neutralization) [5]: > 50 µg/mL
- IC50 (neutralization) [6]: > 50 µg/mL
- IC50 (neutralization) [7]: > 50 µg/mL
- IC50 [8]: > 50 µg/mL
- IC50 (neutralization) [9]: > 50 µg/mL
- IC50 (neutralization) [10]: > 50 µg/mL
- IC50 (neutralization) [11]: > 50 µg/mL
- IC50 (neutralization) [12]: > 50 µg/mL
- IC50 (neutralization) [13]: > 50 µg/mL
- IC50 (neutralization) [14]: > 50 µg/mL
- IC50 (neutralization) [15]: > 50 µg/mL
- IC50 (neutralization) [16]: > 50 µg/mL
- IC50 [17]: > 50 µg/mL
- IC50 (neutralization) [18]: > 50 µg/mL
- IC50 (neutralization) [19]: > 50 µg/mL
- IC50 (neutralization) [20]: 0.106 µg/mL
- IC50 (neutralization) [21]: > 50 µg/mL
- IC50 [22]: > 50 µg/mL
- IC50 [23]: 10.7 µg/mL
- IC50 (neutralization) [24]: 4.05 µg/mL
- IC50 (neutralization) [25]: > 50 µg/mL
- IC50 (neutralization) [26]: 35.3 µg/mL
- IC50 [27]: > 50 µg/mL
- IC50 (neutralization) [28]: 0.854 µg/mL
- IC50 (neutralization) [29]: > 50 µg/mL
- IC50 [30]: > 50 µg/mL
- IC50 [31]: > 50 µg/mL
- IC50 (neutralization) [32]: > 50 µg/mL
- IC50 (neutralization) [33]: 2.74 µg/mL
- IC50 [34]: 0.466 µg/mL
- IC50 (neutralization) [35]: > 50 µg/mL
- IC50 (neutralization) [36]: > 50 µg/mL
- IC50 (neutralization) [37]: > 50 µg/mL
- IC50 [38]: 0.404 µg/mL
- IC50 (neutralization) [39]: > 50 µg/mL
- IC50 (neutralization) [40]: 0.756 µg/mL
- IC50 [41]: 4.31 µg/mL
- IC50 (neutralization) [42]: 19.6 µg/mL
- IC50 [43]: 2.9 µg/mL
- IC50 (neutralization) [44]: 2.01 µg/mL
- IC50 (neutralization) [45]: 0.516 µg/mL
- IC50 [46]: > 50 µg/mL
- IC50 [47]: > 50 µg/mL
- IC50 (neutralization) [48]: 0.148 µg/mL
- IC50 (neutralization) [49]: 0.114 µg/mL
- IC50 (neutralization) [50]: > 50 µg/mL
- IC50 (neutralization) [51]: > 50 µg/mL
- IC50 (neutralization) [52]: > 50 µg/mL
- IC50 (neutralization) [53]: > 50 µg/mL
- IC50 (neutralization) [54]: 4.14 µg/mL
- IC50 (neutralization) [55]: > 50 µg/mL
- IC50 (neutralization) [56]: > 50 µg/mL
- IC50 [57]: 7.75 µg/mL
- IC50 (neutralization) [58]: > 50 µg/mL
